B1: E3 ubiquitin-protein ligase LNX (Homo sapiens), Q8TBB1 (parent)
chain: MNQPESANDPEPLCAVCGQAHSLEENHFYSYPEEVDDDLICHICLQALLDPLDTPCGHTYCTLCLTNFLVEKDFCPMDRKPLVLQHCKKSSILVNKLLNKLLVTCPFREHCTQVLQRCDLEHHFQTSCKGASHYGLTKDRKRRSQDGCPDGCASLTATAPSPEVSAAATISLMTDEPGLDNPAYVSSAEDGQPAISPVDSGRSNRTRARPFERSTIRSRSFKKINRALSVLRRTKSGSAVANHADQGRENSENTTAPEVFPRLYHLIPDGEITSIKINRVDPSESLSIRLVGGSETPLVHIIIQHIYRDGVIARDGRLLPGDIILKVNGMDISNVPHNYAVRLLRQPCQVLWLTVMREQKFRSRNNGQAPDAYRPRDDSFHVILNKSSPEEQLGIKLVRKVDEPGVFIFNVLDGGVAYRHGQLEENDRVLAINGHDLRYGSPESAAHLIQASERRVHLVVSRQVRQRSPDIFQEAGWNSNGSWSPGPGERSNTPKPLHPTITCHEKVVNIQKDPGESLGMTVAGGASHREWDLPIYVISVEPGGVISRDGRIKTGDILLNVDGVELTEVSRSEAVALLKRTSSSIVLKALEVKEYEPQEDCSSPAALDSNHNMAPPSDWSPSWVMWLELPRCLYNCKDIVLRRNTAGSLGFCIVGGYEEYNGNKPFFIKSIVEGTPAYNDGRIRCGDILLAVNGRSTSGMIHACLARLLKELKGRITLTIVSWPGTFL
partner: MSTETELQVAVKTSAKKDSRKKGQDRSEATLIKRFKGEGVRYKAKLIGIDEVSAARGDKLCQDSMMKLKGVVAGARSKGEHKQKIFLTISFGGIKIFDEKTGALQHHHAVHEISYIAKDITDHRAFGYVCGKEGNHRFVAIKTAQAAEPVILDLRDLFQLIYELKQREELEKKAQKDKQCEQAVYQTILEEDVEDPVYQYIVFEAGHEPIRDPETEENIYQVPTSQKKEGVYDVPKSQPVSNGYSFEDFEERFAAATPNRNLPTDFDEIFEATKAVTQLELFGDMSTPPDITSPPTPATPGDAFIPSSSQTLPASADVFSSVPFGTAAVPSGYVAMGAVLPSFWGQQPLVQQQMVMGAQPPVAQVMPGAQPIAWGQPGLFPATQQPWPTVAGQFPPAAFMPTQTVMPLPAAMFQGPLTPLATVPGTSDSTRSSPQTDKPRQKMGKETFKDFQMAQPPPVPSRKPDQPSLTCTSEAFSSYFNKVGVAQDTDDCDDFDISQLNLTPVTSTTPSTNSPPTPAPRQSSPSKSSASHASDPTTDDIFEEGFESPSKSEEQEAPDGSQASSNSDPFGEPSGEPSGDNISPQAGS
B2: Zyxin (Homo sapiens), Q15942 (parent)
chain: MAAPRPSPAISVSVSAPAFYAPQKKFGPVVAPKPKVNPFRPGDSEPPPAPGAQRAQMGRVGEIPPPPPEDFPLPPPPLAGDGDDAEGALGGAFPPPPPPIEESFPPAPLEEEIFPSPPPPPEEEGGPEAPIPPPPQPREKVSSIDLEIDSLSSLLDDMTKNDPFKARVSSGYVPPPVATPFSSKSSTKPAAGGTAPLPPWKSPSSSQPLPQVPAPAQSQTQFHVQPQPQPKPQVQLHVQSQTQPVSLANTQPRGPPASSPAPAPKFSPVTPKFTPVASKFSPGAPGGSGSQPNQKLGHPEALSAGTGSPQPPSFTYAQQREKPRVQEKQHPVPPPAQNQNQVRSPGAPGPLTLKEVEELEQLTQQLMQDMEHPQRQNVAVNELCGRCHQPLARAQPAVRALGQLFHIACFTCHQCAQQLQGQQFYSLEGAPYCEGCYTDTLEKCNTCGEPITDRMLRATGKAYHPHCFTCVVCARPLEGTSFIVDQANRPHCVPDYHKQYAPRCSVCSEPIMPEPGRDETVRVVALDKNFHMKCYKCEDCGKPLSIEADDNGCFPLDGHVLCRKCHTARAQT
partner: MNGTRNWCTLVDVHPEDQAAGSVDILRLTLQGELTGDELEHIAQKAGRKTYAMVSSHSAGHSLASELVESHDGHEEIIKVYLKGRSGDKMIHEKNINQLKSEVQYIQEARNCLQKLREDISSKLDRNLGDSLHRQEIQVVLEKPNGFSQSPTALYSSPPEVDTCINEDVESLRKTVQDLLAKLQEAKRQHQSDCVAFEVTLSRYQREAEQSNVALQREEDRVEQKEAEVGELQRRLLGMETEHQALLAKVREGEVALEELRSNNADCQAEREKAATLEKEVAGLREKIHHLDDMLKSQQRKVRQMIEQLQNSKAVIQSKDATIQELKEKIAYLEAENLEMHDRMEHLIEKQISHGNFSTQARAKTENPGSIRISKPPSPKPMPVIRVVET
B3: Nuclear protein AMMECR1 (Homo sapiens), Q9Y4X0 (parent)
chain: MAAGCCGVKKQKLSSSPPSGSGGGGGASSSSHCSGESQCRAGELGLGGAGTRLNGLGGLTGGGSGSGCTLSPPQGCGGGGGGIALSPPPSCGVGTLLSTPAAATSSSPSSSSAASSSSPGSRKMVVSAEMCCFCFDVLYCHLYGYQQPRTPRFTNEPYPLFVTWKIGRDKRLRGCIGTFSAMNLHSGLREYTLTSALKDSRFPPMTRDELPRLFCSVSLLTNFEDVCDYLDWEVGVHGIRIEFINEKGSKRTATYLPEVAKEQGWDHIQTIDSLLRKGGYKAPITNEFRKTIKLTRYRSEKMTLSYAEYLAHRQHHHFQNGIGHPLPPYNHYS
partner: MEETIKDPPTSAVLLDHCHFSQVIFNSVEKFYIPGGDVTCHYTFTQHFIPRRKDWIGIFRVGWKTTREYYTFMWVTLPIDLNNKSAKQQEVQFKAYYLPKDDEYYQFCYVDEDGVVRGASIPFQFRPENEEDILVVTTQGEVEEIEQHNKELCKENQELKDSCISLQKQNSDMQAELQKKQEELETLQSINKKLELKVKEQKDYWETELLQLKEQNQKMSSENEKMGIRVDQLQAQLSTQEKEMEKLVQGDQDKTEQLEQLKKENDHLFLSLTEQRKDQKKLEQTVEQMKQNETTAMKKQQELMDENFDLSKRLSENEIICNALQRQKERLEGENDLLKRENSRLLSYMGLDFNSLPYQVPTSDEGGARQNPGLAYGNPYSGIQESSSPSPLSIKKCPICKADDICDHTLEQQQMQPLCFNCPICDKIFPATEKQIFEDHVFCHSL
B4: Tuftelin-interacting protein 11 (Homo sapiens), Q9UBB9 (parent)
chain: MSLSHLYRDGEGRIDDDDDERENFEITDWDLQNEFNPNRQRHWQTKEEATYGVWAERDSDDERPSFGGKRARDYSAPVNFISAGLKKGAAEEAELEDSDDEEKPVKQDDFPKDFGPRKLKTGGNFKPSQKGFAGGTKSFMDFGSWERHTKGIGQKLLQKMGYVPGRGLGKNAQGIINPIEAKQRKGKGAVGAYGSERTTQSMQDFPVVDSEEEAEEEFQKELSQWRKDPSGSKKKPKYSYKTVEELKAKGRISKKLTAPQKELSQVKVIDMTGREQKVYYSYSQISHKHNVPDDGLPLQSQQLPQSGKEAKAPGFALPELEHNLQLLIDLTEQEIIQNDRQLQYERDMVVNLFHELEKMTEVLDHEERVISNLSKVLEMVEECERRMQPDCSNPLTLDECARIFETLQDKYYEEYRMSDRVDLAVAIVYPLMKEYFKEWDPLKDCTYGTEIISKWKSLLENDQLLSHGGQDLSADAFHRLIWEVWMPFVRNIVTQWQPRNCDPMVDFLDSWVHIIPVWILDNILDQLIFPKLQKEVENWNPLTDTVPIHSWIHPWLPLMQARLEPLYSPIRSKLSSALQKWHPSDSSAKLILQPWKDVFTPGSWEAFMVKNIVPKLGMCLGELVINPHQQHMDAFYWVIDWEGMISVSSLVGLLEKHFFPKWLQVLCSWLSNSPNYEEITKWYLGWKSMFSDQVLAHPSVKDKFNEALDIMNRAVSSNVGAYMQPGARENIAYLTHTERRKDFQYEAMQERREAENMAQRGIGVAASSVPMNFKDLIETKAEEHNIVFMPVIGKRHEGKQLYTFGRIVIYIDRGVVFVQGEKTWVPTSLQSLIDMAK
partner: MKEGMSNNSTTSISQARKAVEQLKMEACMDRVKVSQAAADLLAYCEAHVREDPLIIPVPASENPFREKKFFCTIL

Variants of: B1
Conditions: with dab1_human DAB1, O75553

effect of a mutation on the interaction	Variant
with no effect	R342H

Variants of: B2
Conditions: with tuft1_human TUFT1, Q9NNX1

effect of a mutation on the interaction	Variant
with no effect	H223L
with no effect	R563Q

Variants of: B3
Conditions: with caco2_human CALCOCO2, Q13137

effect of a mutation on the interaction	Variant
disrupting interaction strength	R207G

Variants of: B4
Conditions: with gbg4_human GNG4, P50150

effect of a mutation on the interaction	Variant
with no effect	R8Q
with no effect	S688L

Reference: IntAct's records for PubMed 31515488
